Assay results from the nanobody polyreactivity screen of Harvey et al. (2022).

Experiment: yeast display, Sf9 membrane polyspecificity reagent, FACS + sequencing; frameworks hold sequencing errors
Method in brief: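 Genes from sorted yeast were amplified by colony PCR, read by MiSeq 2 × 250 sequencing and filtered on CDR length. These cells carried a synthetic nanobody library in Saccharomyces cerevisiae BJ5465 and were sorted by FACS into low and high (top ~1%) gates on anti-HA and streptavidin fluorescence. Polyreactivity is labelled according to the gate of origin.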

**Q.** For “QVQLVESGGGLVQAGGSLRLSCAASGNTIGVNAMGWYRQAPGKERELVAVITSGGGSTYYADSVKGRFTISRDNAKNTVYLQMNSLKPEDTAVYYCARRSYRLYTLGNGYWGQGTQVTVSS”, which “polyreactivity (PSR sort gate)” value is on record?
**A.** The value was “low polyreactivity”.

**Q.** With “QVQLVESGGGLVQAGGSLRLSCAASGNTIIRYAIAWYRQAPGKERELVAAISYSGGRTYYADSVKGRFTISRDNANNTVYLQMNSLKPEDTAVYYCNAASRYGGDYWGQGTQVTVSS” as the sequence, how does the “polyreactivity (PSR sort gate)” value read?
**A.** The value was “high polyreactivity”.

**Q.** Which “polyreactivity (PSR sort gate)” value does the source give for “QVQLVESGGGLVQAGGSLRLSCAASGNTIIRYPMGWYRPAPGKERELVAAISYSGGRTYYADSVKGRFTISRDSAKNTVYLQMNRLKPEDSAVLYCNAASRYGGDYWGQGSQVTVSS” here?
**A.** Its value is “high polyreactivity”.

**Q.** For “QVQLVESGGGLVQAGGSLRLSCAASGNTIKGYAMGLYRQAPGKERELVAAISWSGSSTYYADSVKGRFTISRDNAKYSVYLHKNSVKPEDTAVYYCNRKYLGRYASVYGYGYWGQGTQVTVSS”, which “polyreactivity (PSR sort gate)” value is on record?
**A.** The value was “high polyreactivity”.

**Q.** Which “polyreactivity (PSR sort gate)” value does the source give for “QVQLVESGGGLVQAGGSLRLSCAASGNTIRSYAMGWYRPAPGKERELVAAISGRGGSTYYADSVKGRFTISRDNAKNTVYLEMNSLKPEDTAVNYCAAESRRVNYANDYWGQGTEVTVSS” here?
**A.** The value was “high polyreactivity”.

**Q.** With “QVQLVESGGGLVQAGGSLRLSCAASGNTLAYYVMGWYRQAPGKERELVAAITSGGTTNYADSVKGRFTISRDNAKNTVYLQMNSLNPEDTAVYYCAGCPSKRPPWLRQGGYDYWGQGTQVTVSS” as the sequence, how does the “polyreactivity (PSR sort gate)” value read?
**A.** The value was “low polyreactivity”.

**Q.** With “QVQLVESGGGLVQAGGSLRLSCAASGNTLDAYAMGWYRQAPGKERELVAAITSGGSTYYADSVKGRFTISRDNAKNTVYLQMNILKPEDTAVYYCNADGHPSDPGYDYWGQGTQVTVSS” as the sequence, how does the “polyreactivity (PSR sort gate)” value read?
**A.** The value was “low polyreactivity”.

**Q.** With “QVQLVESGGGLVQAGGSLRLSCAASGNTSVPYAMGWYRQAPGKERELVARITWSTGRTYYADSVKGRFTISRDNAKNTVYLQMNSLKPEDTAVYYCATEALLPCSGGDYWGQGTQVTVSS” as the sequence, how does the “polyreactivity (PSR sort gate)” value read?
**A.** The value was “low polyreactivity”.

**Q.** Which “polyreactivity (PSR sort gate)” value does the source give for “QVQLVESGGGLVQAGGSLRLSCAASGNTYGRYAMGWYRQAPGKERELVAAISSSGTSTYYADSVKGRFTISRDNAKNTVYLQMNSLKPVDTAVYNCGAVYWTFWGTIASRYDYWGQGTQVTVAS” here?
**A.** Its value is “high polyreactivity”.

**Q.** Which “polyreactivity (PSR sort gate)” value does the source give for “QVQLVESGGGLVQAGGSLRLSCAASGNTYLNAMGWYRQAPGKERELVAAISKGGADTYYADSVKGRFTISRDNAKNTVYLQMNSLKPEDTAVYYCAADGYADGWWVEYPWTYDYWGQGTQVTVSS” here?
**A.** Its value is “low polyreactivity”.

**Q.** For “QVQLVESGGGLVQAGGSLRLSCAASGPIFTSNAMGWYRQAPGKERELVAAISRRGTRTYYADSVKGRFTISRDNAKNTVYLQMNSLKPEDTAVYYCAATTGEQEYYWGQGTQVTVSS”, which “polyreactivity (PSR sort gate)” value is on record?
**A.** Its value is “high polyreactivity”.

**Q.** Which “polyreactivity (PSR sort gate)” value does the source give for “QVQLVESGGGLVQAGGSLRLSCAASGPMFTSNAMGWYRQAPGKERELVAAISRRGTRTYYADSVKGRFTISRDIAKHSVYLQMNSLKPEDTAVYYCAATTGEQEDYWGQGTQVTVSS” here?
**A.** Its value is “high polyreactivity”.

**Q.** For “QVQLVESGGGLVQAGGSLRLSCAASGPTFFYYAMGWYRQAPGKERELVAAIRRSGGRTRYADSVKGRFTISRDNAKNTVYLQMNSLKPEDTAVYYCAADDGTHRRGYDYWGQGTQVTVSS”, which “polyreactivity (PSR sort gate)” value is on record?
**A.** The value was “low polyreactivity”.

**Q.** Which “polyreactivity (PSR sort gate)” value does the source give for “QVQLVESGGGLVQAGGSLRLSCAASGPTFPFNAMGWYRQAPGKERELVAAISWRDGRTYYADSVKGRFTISRDNAKNTVYLQMNSLKPEDTAVYYCNVVKRRSDWGMDYWGQGTQVTVSS” here?
**A.** The value was “high polyreactivity”.

**Q.** For “QVQLVESGGGLVQAGGSLRLSCAASGPTFWRNAMGWYRQAPGKEREFVASISRSGGSTYYADSVKGRFTISRDNAKNTVYLQMNSLKPEDTAVYYCAALGVRGYRGPGGQDYNSWGQGTQVTVSS”, which “polyreactivity (PSR sort gate)” value is on record?
**A.** Its value is “high polyreactivity”.

**Q.** For “QVQLVESGGGLVQAGGSLRLSCAASGPTYKYNAMGWYRQAPGKEREMVAAISSTGSTNYADSVKGRFTISRDNAKNTVYLQMNSLKPEDTAVYYCAASFYFVQWGWYYYWGQGTQVTVSS”, which “polyreactivity (PSR sort gate)” value is on record?
**A.** The value was “low polyreactivity”.

**Q.** Which “polyreactivity (PSR sort gate)” value does the source give for “QVQLVESGGGLVQAGGSLRLSCAASGPTYWPYAMGWYRQAPGKERELVAAITYSGGGTYYADSVKGRFTISRDNAKNTVYLQMNSLKPEDTAVYYCAKYNYPGRPFDYWGQGTQVTVSS” here?
**A.** The value was “low polyreactivity”.

**Q.** Which “polyreactivity (PSR sort gate)” value does the source give for “QVQLVESGGGLVQAGGSLRLSCAASGQTFGGYAMGWYRQAPGKERELVAAITKRGGNTDYADSVKGRFTISRDKAKNTVYLQMTSLKPEDTAVYYCAASRAVGFGYWGQGTQVTVSS” here?
**A.** Its value is “high polyreactivity”.

**Q.** Which “polyreactivity (PSR sort gate)” value does the source give for “QVQLVESGGGLVQAGGSLRLSCAASGQTFRRYDMGWYRQAPGKEREFVAAITWSTGSTYYADSVKGRFTISRDYAKNTVYLQMNSLKPEDTAGYYCAARSGYFYRYYKYDYWGQGTQVTVSS” here?
**A.** Its value is “high polyreactivity”.

**Q.** Which “polyreactivity (PSR sort gate)” value does the source give for “QVQLVESGGGLVQAGGSLRLSCAASGRFFSNNAMGWYRPAPGKERELVAAIDSSGDSTNYADSVKGRFTISRDIAKNTVYLQMNSLKPEDTAVYYCNALQRGRRVWQYLYGYWGQGTQVNVSS” here?
**A.** Its value is “high polyreactivity”.

**Q.** For “QVQLVESGGGLVQAGGSLRLSCAASGRICDFYSMGWYRQAPGKERELVAAIDSDGSTNYADSVKGRFTISRDNAKNNVYLQMNSLKPEDTAVSYCNADIWAYTYRRYDYWGQGTQVTVSS”, which “polyreactivity (PSR sort gate)” value is on record?
**A.** The value was “low polyreactivity”.

**Q.** Which “polyreactivity (PSR sort gate)” value does the source give for “QVQLVESGGGLVQAGGSLRLSCAASGRICGSYAMGWYRQAPGKERELVADISWRGTSTYYADSVKGRFTISRDIAKNTVYLQMNSLKPEDTAVYYCAARGLWPYDYWGQGTQVTVSS” here?
**A.** Its value is “low polyreactivity”.

**Q.** With “QVQLVESGGGLVQAGGSLRLSCAASGRICKRNAMGWYRQAPGKERELVAAITWSGGSTYYADSVKGRFTISRDNAKNTVYLQMNSLKPEDTAVYYCAALRVQGDYDYWGQGTQVTVSS” as the sequence, how does the “polyreactivity (PSR sort gate)” value read?
**A.** The value was “high polyreactivity”.

**Q.** For “QVQLVESGGGLVQAGGSLRLSCAASGRICPGYVMGRYRQAPGKERELVAAITSTGRTYYADSVKGRFTISRDNEKKTVYLQMNSLKPEDTAVYYCAAVRSYYRGYDYWGQGTQVTVSS”, which “polyreactivity (PSR sort gate)” value is on record?
**A.** The value was “high polyreactivity”.

**Q.** Which “polyreactivity (PSR sort gate)” value does the source give for “QVQLVESGGGLVQAGGSLRLSCAASGRIDVSNAMGWYRQAPGKERELVAAITRTGASTYYADSVKGRCTISRDNAKNNVYVQMNSLKPEDSAVYYSDDVWGWPYWVYRYDYWGQGTQVTVSS” here?
**A.** The value was “high polyreactivity”.

**Q.** Which “polyreactivity (PSR sort gate)” value does the source give for “QVQLVESGGGLVQAGGSLRLSCAASGRIFADNAMGWYRQAPGKERELVADITYSGGSTYYADSVKGRFTISRDNAKNTVYLQMNSLNPEDTAVYYCAKQGVDYWGQGTQVTVSS” here?
**A.** The value was “low polyreactivity”.

**Q.** For “QVQLVESGGGLVQAGGSLRLSCAASGRIFADYGMGWYRQAPGKERELVAAITDRGGTTYYADSVKGRFTISRDNAKNTVYLQMNSLKPEDTAVYYCAADTPDAPDYSGFYYWGQGTQVTVSS”, which “polyreactivity (PSR sort gate)” value is on record?
**A.** The value was “low polyreactivity”.

**Q.** For “QVQLVESGGGLVQAGGSLRLSCAASGRIFAENAMGWYRQAPGKERELVAAISRTGSRTYYADSVKGRFTISRDNAKNTVYLQMNSLKPEDSAVYYCNKVSAQDEFRSRGYWGQGTQVTVSS”, which “polyreactivity (PSR sort gate)” value is on record?
**A.** Its value is “high polyreactivity”.

**Q.** Which “polyreactivity (PSR sort gate)” value does the source give for “QVQLVESGGGLVQAGGSLRLSCAASGRIFAGYAMGWYRQAPGKEREFVATITSRAGNTYYADSVKGRFTISRDNAKNTVYLQMNSLKPEDTGVYYCAARSRGWAGYYYWYKDYSWGQGTQVTVSS” here?
**A.** The value was “high polyreactivity”.

**Q.** With “QVQLVESGGGLVQAGGSLRLSCAASGRIFAHNAMGWYRQAPGKERELGASINSGGSTTYADSVKGRFTISRDNAKNTVYLQMNSLKPEDTAVYDCAKRDKYGKYDYWGQGTQVTVSS” as the sequence, how does the “polyreactivity (PSR sort gate)” value read?
**A.** The value was “low polyreactivity”.

**Q.** For “QVQLVESGGGLVQAGGSLRLSCAASGRIFAHYAMGWYRQAPGKERELVAAIRRSGVSTYYADSVKGRFTSSRDNAKNTVYLQMNSLKPEDTAVYYCNARAYVSPYDYWGQGTQVTVSS”, which “polyreactivity (PSR sort gate)” value is on record?
**A.** The value was “low polyreactivity”.

**Q.** With “QVQLVESGGGLVQAGGSLRLSCAASGRIFAIYAAIGWYRQAPGKERELVAAISSGDNTNYADSEKGRFTISRDNAKNTVYLQMNSLIPEDTAVYYCATDLVYYAAVTKFAEYDYWGQGTQVTVSS” as the sequence, how does the “polyreactivity (PSR sort gate)” value read?
**A.** Its value is “low polyreactivity”.
